Target: Smog::GFP (Drosophila)
Experiment: fluorescence correlation spectroscopy

## Smog::GFP (receptor)
  estimated fraction of dimers (monomer/dimer model), WT embryos: 68%
  estimated fraction of dimers (monomer/dimer model), control embryos: 79%
  estimated fraction of dimers (monomer/dimer model), gprk2 RNAi embryos: 100%
  estimated fraction of trimers (monomer/trimer model), control embryos: 21%
  estimated fraction of trimers (monomer/trimer model), gprk2 RNAi embryos: 76%
